This is an account of results in patent publication US20130102644, “Prophylactic or Ameliorating Agent for Genetic Diseases” (published 2013).

The data set deals with hnRNP A1 (Homo sapiens, UniProt P09651 P09651:1-372). In words: EMSA; 100-400 ng protein; same as mutant at low protein, less efficient at 400 ng; 80 mM KCl, pH 7.9, E. coli tRNA, 20 C. Conditions: tags: N-terminal GST (GST-pcDNA3), expressed in HEK293T; label: 32P. As for the experimental part:
Human hnRNP A1 cDNA was amplified by PCR. The obtained amplified fragment was inserted to between the BamHI and NotI sites of GST-pcDNA3 to prepare a GST-hnRNP A1 plasmid. The whole sequence of this plasmid was determined to confirm the plasmid to comprise the fragment of interest. HEK293T cells were transfected with this GST-hnRNP A1 plasmid, and the obtained transformed cells were cultured. A whole cell lysate was prepared from the collected transformed cells according to the method described in the document (Methods Mol Biol (2008) 488, 357-365). The GST-hnRNP A1 protein was purified from the whole cell lysate using an anti-GST affinity resin (manufactured by Sigma-Aldrich Corp.), basically as described in the document (The Journal of Biological Chemistry (2002) 277, 7540-7545) except that the resin was washed twice with buffer solution E (20 mM Hepes-KOH (pH 7.9), 1000 mM KCl, 0.2 mM EDTA, 10% glycerol, and 1 mM DTT) before elution from the column. Subsequently, mutant exon 31 RNA or wild-type exon 31 RNA labeled with ³²P was mixed with the GST-hnRNP A1 protein and incubated at 20° C. for 30 minutes. The obtained complex was subjected to gel mobility shift assay. […]
The gel mobility shift assay was basically conducted according to the method described in the document (Nucleic Acids Research (1995) 23, 3638-3641). […] Bands were analyzed by autoradiography. […]
For orientation: A gel shift assay detects complexes by their altered migration in electrophoresis.

Sequence of hnRNP A1 (P09651 whole entry, the tested form may be a part, one chain of several): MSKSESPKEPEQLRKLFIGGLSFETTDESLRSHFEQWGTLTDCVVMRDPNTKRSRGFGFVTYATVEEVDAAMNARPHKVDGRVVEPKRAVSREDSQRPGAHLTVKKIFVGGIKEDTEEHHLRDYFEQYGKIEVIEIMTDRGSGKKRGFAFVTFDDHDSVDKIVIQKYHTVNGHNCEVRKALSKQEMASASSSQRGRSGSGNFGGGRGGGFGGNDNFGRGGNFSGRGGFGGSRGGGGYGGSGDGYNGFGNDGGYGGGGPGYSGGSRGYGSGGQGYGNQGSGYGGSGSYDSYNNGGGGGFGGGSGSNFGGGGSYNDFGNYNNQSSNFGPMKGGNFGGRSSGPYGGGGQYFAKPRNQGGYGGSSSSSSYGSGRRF

B1: dystrophin exon 31 RNA wild-type (ssRNA)
RNA: AAAAUCCAAUCUGAUUUGACAAGUCAUGAGAUCAGUUUAGAAGAAAUGAAGAAACAUAAUCAGGGGAAGGAGGCUGCCCAAAGAGUCCUGUCUCAGAUUGAUGUUGCACAG
B1: the binding result is listed as “binds”.
